According to patent WO2009041734A1 (dated 2009):
Substitutions are numbered along the chain they refer to. Values belong to the binder of their own block, whether it stands above or below them.

Tests used:
[1] = target: T1, human thrombopoietin receptor (human c-Mpl) (human, UniProt P40238 26-635); experiment: cell-based or functional assay
T1 sequence (looked up): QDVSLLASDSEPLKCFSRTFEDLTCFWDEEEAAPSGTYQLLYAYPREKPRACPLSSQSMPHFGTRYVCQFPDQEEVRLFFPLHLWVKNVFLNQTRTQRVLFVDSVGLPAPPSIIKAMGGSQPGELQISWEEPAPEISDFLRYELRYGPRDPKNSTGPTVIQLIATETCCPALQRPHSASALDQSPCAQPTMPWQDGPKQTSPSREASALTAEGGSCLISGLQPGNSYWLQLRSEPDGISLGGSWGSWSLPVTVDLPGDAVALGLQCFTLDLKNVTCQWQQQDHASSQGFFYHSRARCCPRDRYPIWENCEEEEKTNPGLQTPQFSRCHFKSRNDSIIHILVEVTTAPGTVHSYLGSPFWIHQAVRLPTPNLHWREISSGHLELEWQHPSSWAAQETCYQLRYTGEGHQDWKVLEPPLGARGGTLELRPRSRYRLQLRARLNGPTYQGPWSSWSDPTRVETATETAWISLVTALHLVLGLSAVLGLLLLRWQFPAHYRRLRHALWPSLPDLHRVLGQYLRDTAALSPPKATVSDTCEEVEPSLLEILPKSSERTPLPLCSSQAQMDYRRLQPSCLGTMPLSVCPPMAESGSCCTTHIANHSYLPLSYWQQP

[2] = target: T1, human thrombopoietin receptor (human …); experiment: flow cytometry on FM3A-hMpl cells, antibody at 1, 0.1, 0.01 ug/mL

B2: anti-human c-Mpl agonist antibody 4-49 (IgG1) (antibody, V domains shown)
VH: EEQLVESGGGLVQPGRSLRLSCTASGFTFDDYAMYWVRQVPGKGLEWVSGISWNSGSIGYADSVKGRFTVSRDNAKNSLYLQMNSLRAEDTALYYCAKALWFGEFPHYYGMDVWGQGTTVTVSS
VL: AIQLTQSPSSLSASVGDRVTITCRASQGISSTLAWYQQKPGKAPKLLIYDASSLESGVPSRFSGSGSGTDFTLTISSLQPEDFATYYCQQFNSYPYTFGQGTKLEIKR
UT7/TPO (Max), maximum activity relative to PEG-rHuMGDF [1]: > 80%

B5: 7-10G4344uhm light chain mutant 7-10VL_Y94F (antibody, V domains shown)
VH: EVQLVESGGGLVQPGRSLRLSCAASGFTFDDYAMHWVRQAPGKGLEWVSGISWNSGSIGYADSVKGRFTISRDNAKNSLYLQMNSLRAEDTALYYCAKNLWFGEFRYWYFDLWGRGTLVTVSS
VL: AIQLTQSPSSLSASVGDRVTITCRASQGISSALAWYQQKPGKAPKLLIYDASSLESGVPSRFSGSGSGTDFTLTISSLQPEDFATYYCQQFNSFPLTFGGGTKVEIK
agonist activity relative to 7-10G4344uhm, UT-7/TPO cell proliferation assay [1]: ~0.1 fold of 7-10G4344uhm | binding activity relative to 7-10G4344uhm [2]: ~0.1 fold of 7-10G4344uhm

Now from value to binder:

UT7/TPO (Max), maximum activity relative to PEG-rHuMGDF [1]: > 50%
B1: anti-human c-Mpl agonist antibody 6-5-2 (IgG1) (antibody, V domains shown)
VH: EVQLVECGGGLVQPGRSLRLSCAASGFTFDDYAMHWVRQAPGKGLEWVSGISWNSGSIGYADSVKGRFTISRDNAKNSLYLQMNSLRAEDTALYYCAKPIWFGEWGNYYGMDVWGQGTTVTVSS
VL: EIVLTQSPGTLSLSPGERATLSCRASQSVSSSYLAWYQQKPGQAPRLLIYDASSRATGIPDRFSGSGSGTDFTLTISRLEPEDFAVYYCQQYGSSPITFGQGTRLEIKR

UT7/TPO (Max), maximum activity relative to PEG-rHuMGDF [1]: > 80%
B3: anti-human c-Mpl agonist antibody 6-4-50 (IgG1) (antibody, V domains shown)
VH: EVQLVESGGGLVQPGRSLRLSCATSGFTFDNYAMYWVRQAPGKGLEWVSGISWNSGDIGYADSVKGRFTISRDNAKNSLYLQMNSLRAEDTALYYCARDAGFGEFHYGLDVWGQGTTVTVSS
VL: B2 VL with T32A, A43V, Y96W, L104V

UT7/TPO (Max), maximum activity relative to PEG-rHuMGDF [1]: > 90%
B4: anti-human c-Mpl agonist antibody 7-10 (IgG1) (antibody, V domains shown)
VH: B5 VH
VL: B5 VL with F94Y
